According to publication PMC6235398, “Unveiling the structural features that determine the dual methyltransferase activities of Streptococcus pneumoniae RlmCD”:

How the values were obtained:
[1] = biological target: RlmCD Q283A (Streptococcus pneumoniae, UniProt Q97R12 1-543, Q283A); test: EMSA; 5 uM SAH; not severely affected vs WT; EMSA: 20 mM Tris-HCl pH 8.0, 250 mM NaCl, 1 mM MgCl2, 0.5 uM FAM-RNA, 5 uM SAH, 0-5 uM protein, 37 C 30 min; 10% native PAGE on ice; details: protein: recombinant, tags: 8xHis-SUMO removed by ULP1, label: 5'-FAM
[2] = biological target: RlmCD D381A (Streptococcus pneumoniae, UniProt Q97R12 1-543, D381A); test: as above; details: protein: recombinant, tags: 8xHis-SUMO removed by ULP1, label: 5'-FAM
[3] = biological target: RlmCD WT (Streptococcus pneumoniae, UniProt Q97R12 1-543); test: EMSA; 5 uM SAH; two shifted bands; EMSA: 20 mM Tris-HCl pH 8.0, 250 mM NaCl, 1 mM MgCl2, 0.5 uM FAM-RNA, 5 uM SAH, 0-5 uM protein, 37 C 30 min; 10% native PAGE on ice; details: protein: recombinant; tags: 8xHis-SUMO removed by ULP1; label: 5'-FAM; 5' single strand with 3' hairpin
[4] = biological target: RlmCD F145A (Streptococcus pneumoniae, UniProt Q97R12 1-543, F145A); test: EMSA; 5 uM SAH; almost no effect vs WT; EMSA: 20 mM Tris-HCl pH 8.0, 250 mM NaCl, 1 mM MgCl2, 0.5 uM FAM-RNA, 5 uM SAH, 0-5 uM protein, 37 C 30 min; 10% native PAGE on ice; details: protein: recombinant; tags: 8xHis-SUMO removed by ULP1; label: 5'-FAM; 5' single strand with 3' hairpin
[5] = biological target: T1, RlmCD 1-454 E443Q (Streptococcus pneumoniae, UniProt Q97R12 1-454, E443Q); test: X-ray crystallography; SAH (SAM added); covalent C408-U747; space group P1, two complexes per asymmetric unit; EMSA: 20 mM Tris-HCl pH 8.0, 250 mM NaCl, 1 mM MgCl2, 0.5 uM FAM-RNA, 5 uM SAH, 0-5 uM protein, 37 C 30 min; 10% native PAGE on ice; details: protein: recombinant; tags: 8xHis-SUMO removed by ULP1; hairpin, 2 bp stem (743-754, 744-753)
[6] = biological target: T1, RlmCD 1-454 E443Q; test: X-ray crystallography; SAH (SAM added); covalent C408-U747; EMSA: 20 mM Tris-HCl pH 8.0, 250 mM NaCl, 1 mM MgCl2, 0.5 uM FAM-RNA, 5 uM SAH, 0-5 uM protein, 37 C 30 min; 10% native PAGE on ice; details: protein: recombinant; tags: 8xHis-SUMO removed by ULP1; single strand
[7] = biological target: T1, RlmCD 1-454 E443Q; test: X-ray crystallography; SAH (SAM added); covalent C408-U1939; 3.10 A; EMSA: 20 mM Tris-HCl pH 8.0, 250 mM NaCl, 1 mM MgCl2, 0.5 uM FAM-RNA, 5 uM SAH, 0-5 uM protein, 37 C 30 min; 10% native PAGE on ice; details: protein: recombinant; tags: 8xHis-SUMO removed by ULP1; single strand
[8] = hairpin, 2 bp stem (743-754, 744-753)
[9] = 5' single strand with 3' hairpin

B1: FAM-U747SL (structured_RNA)
RNA: CCGUUGAAAAGG
B1: binds [1, 8]; binds [2, 8].

B2: FAM-U1939 30-nt (structured_RNA)
RNA: GCGAAAUUCCUUGUCGGGUAAGUUCCGACC
B2: binds [1, 9]; binds [2, 9]; binds [3]. B2: binds [4].

B3: U747SL (structured_RNA)
RNA: CCGUUGAAAAGG
modifications: m5 at U747 formed in crystal, covalent to C408
B3: binds [5].

B4: U747L (ssRNA)
RNA: GUUGAAAA
modifications: m5 at U747 formed in crystal, covalent to C408
B4: binds [6].

B5: U1939L (ssRNA)
RNA: AAAUUCCU
modifications: m5 at U1939 formed in crystal, covalent to C408
B5: binds [7].
